Measured values: PMC5472179 (Nature Communications, 2017)
Ends that are not written are not given here. * marks the point of attachment. FITC = O=C1OC2(c3ccc(O)cc3Oc3cc(O)ccc32)c2ccc(NC(=S)*)cc21

B1: eVP30_(110–272) (domain or fragment)
chain: GSVEQQLNITAPKDSRLANPTADDFQQEEGPKITLLTLIKTAEHWARQDIRTIEDSKLRALLTLCAVMTRKFSKSQLSLLCETHLRREGLGQDQAEPVLEVYQRLHSDKGGSFEAALWQQWDRQSLIMFITAFLNIALQLPCESSAVVVSGLRTLVPQSDNEE

Columns and labels:
[1] = biological target: the molecule itself; experiment: SEC-MALS
[2] = biological target: B1; experiment: ITC; details: both partners purified
[3] = biological target: B1; experiment: SEC-MALS; details: both partners purified
[4] = biological target: B1; experiment: fluorescence polarisation; details: both partners purified

B1
stoichiometry N [1]: 2

B2: eNP_(600–739) (domain or fragment)
chain: RTPTVAPPAPVYRDHSEKKELPQDEQQDQDHTQEARNQDSDNTQSEHSFEEMYRHILRSQGPFDAVLYYHMMKDEPVVFSTSDGKEYTYPDSLEEEYPPWLTEKEAMNEENRFVTLDGQQFYWPVMNHKNKFMAILQHHQ
Kd [2]: 3.75 µM | stoichiometry N [2]: 0.8 | stoichiometry N [3]: 1

B3: eVP30BP (unlabelled) (peptide)
peptide: RTPTVAPPAPVYRDHS
binding result [4]: binds

B4: FITC-eVP30BP (peptide)
peptide: {FITC}-RTPTVAPPAPVYRDHS
binding result [4]: binds
